One protein from patent US20250136952A1 (WISCONSIN ALUMNI RESEARCH FOUNDATION, published 2025) can be followed below.

This series deals with the molecule itself. The series can be described thus: X-ray crystal structure of GmPDH1-NADP+-citrate, 1.69 A. The procedure: Crystals of GmPDH1 M219T/N222D formed in 16% (w/v) PEG 8000, 40 mM potassium phosphate dibasic, and 20% (v/v) glycerol. All crystals were flash-frozen in liquid nitrogen with mother liquor supplemented with 25% glycerol as a cryoprotectant.
The GmPDH1 structure was solved by single-wavelength anomalous dispersion (SAD) phasing. Diffraction data collected at beamline 19ID of the Argonne National Laboratory Advanced Photon Source were indexed, integrated, and scaled using HKL3000⁴⁸. SHELX⁴⁹ was used to determine initial SeMet positions and to estimate initial phases from the peak wavelength data set. SeMet positions and parameters were refined in MLPHARE⁵⁰. Solvent flattening was performed with DM⁵¹, and ARP/wARP⁵² was used to build an initial model. Iterative rounds of manual model building and refinement were performed with COOT⁵³ and PHENIX⁵⁴, respectively. The resulting model was used for molecular replacement into the higher resolution native data set using PHASER⁵⁵. Iterative rounds of manual model building and refinement, which included translation-libration-screen (TLS) models, used COOT and PHENIX, respectively. The native GmPDH1 structure was used for molecular replacement to solve the GmPDH1 N222D and GmPDH1 M219T/N222D structures. Each mutant structure was built and refined using the same method as the wild-type enzyme. […]

B1: Glycine max (soybean) prephenate dehydrogenase GmPDH1, wild type (enzyme)
chain: MSTSSSSQSLKIGIVGFGNFGQFLAKTMIKQGHTLTATSRSDYSELCLQMGIHFFRDVSAFLTADIDVIVLCTSILSLSEVVGSMPLTSLKRPTLFVDVLSVKEHPRELLLRELPEDSDILCTHPMFGPQTAKNGWTDHTFMYDKVRIRDEVICSNFIQIFATEGCKMVQMSCEEHDRAAAKSQFITHTIGRTLGEMDIQSTPIDTKGFETLVKLKETMMRNSFDLYSGLFVYNRFARQELENLEHALHKVKETLMIQRTNGEQGHKRTES
notes: also called Gm18g02650; 18g02650; not shown: N-terminal 6x-His tag from the pET28a vector
Regarding B1, the binding result is recorded as “binds”.
